Results published in patent US20230212275.

Legend:
[1] = target: C3b (Complement Technology, Inc, A113) (UniProt P01024)
[2] = target: C3b (Complement Technology, Inc, A113), P01024
Chain of C3b (Complement Technology, Inc, A113), P01024 (P01024 whole entry, looked up): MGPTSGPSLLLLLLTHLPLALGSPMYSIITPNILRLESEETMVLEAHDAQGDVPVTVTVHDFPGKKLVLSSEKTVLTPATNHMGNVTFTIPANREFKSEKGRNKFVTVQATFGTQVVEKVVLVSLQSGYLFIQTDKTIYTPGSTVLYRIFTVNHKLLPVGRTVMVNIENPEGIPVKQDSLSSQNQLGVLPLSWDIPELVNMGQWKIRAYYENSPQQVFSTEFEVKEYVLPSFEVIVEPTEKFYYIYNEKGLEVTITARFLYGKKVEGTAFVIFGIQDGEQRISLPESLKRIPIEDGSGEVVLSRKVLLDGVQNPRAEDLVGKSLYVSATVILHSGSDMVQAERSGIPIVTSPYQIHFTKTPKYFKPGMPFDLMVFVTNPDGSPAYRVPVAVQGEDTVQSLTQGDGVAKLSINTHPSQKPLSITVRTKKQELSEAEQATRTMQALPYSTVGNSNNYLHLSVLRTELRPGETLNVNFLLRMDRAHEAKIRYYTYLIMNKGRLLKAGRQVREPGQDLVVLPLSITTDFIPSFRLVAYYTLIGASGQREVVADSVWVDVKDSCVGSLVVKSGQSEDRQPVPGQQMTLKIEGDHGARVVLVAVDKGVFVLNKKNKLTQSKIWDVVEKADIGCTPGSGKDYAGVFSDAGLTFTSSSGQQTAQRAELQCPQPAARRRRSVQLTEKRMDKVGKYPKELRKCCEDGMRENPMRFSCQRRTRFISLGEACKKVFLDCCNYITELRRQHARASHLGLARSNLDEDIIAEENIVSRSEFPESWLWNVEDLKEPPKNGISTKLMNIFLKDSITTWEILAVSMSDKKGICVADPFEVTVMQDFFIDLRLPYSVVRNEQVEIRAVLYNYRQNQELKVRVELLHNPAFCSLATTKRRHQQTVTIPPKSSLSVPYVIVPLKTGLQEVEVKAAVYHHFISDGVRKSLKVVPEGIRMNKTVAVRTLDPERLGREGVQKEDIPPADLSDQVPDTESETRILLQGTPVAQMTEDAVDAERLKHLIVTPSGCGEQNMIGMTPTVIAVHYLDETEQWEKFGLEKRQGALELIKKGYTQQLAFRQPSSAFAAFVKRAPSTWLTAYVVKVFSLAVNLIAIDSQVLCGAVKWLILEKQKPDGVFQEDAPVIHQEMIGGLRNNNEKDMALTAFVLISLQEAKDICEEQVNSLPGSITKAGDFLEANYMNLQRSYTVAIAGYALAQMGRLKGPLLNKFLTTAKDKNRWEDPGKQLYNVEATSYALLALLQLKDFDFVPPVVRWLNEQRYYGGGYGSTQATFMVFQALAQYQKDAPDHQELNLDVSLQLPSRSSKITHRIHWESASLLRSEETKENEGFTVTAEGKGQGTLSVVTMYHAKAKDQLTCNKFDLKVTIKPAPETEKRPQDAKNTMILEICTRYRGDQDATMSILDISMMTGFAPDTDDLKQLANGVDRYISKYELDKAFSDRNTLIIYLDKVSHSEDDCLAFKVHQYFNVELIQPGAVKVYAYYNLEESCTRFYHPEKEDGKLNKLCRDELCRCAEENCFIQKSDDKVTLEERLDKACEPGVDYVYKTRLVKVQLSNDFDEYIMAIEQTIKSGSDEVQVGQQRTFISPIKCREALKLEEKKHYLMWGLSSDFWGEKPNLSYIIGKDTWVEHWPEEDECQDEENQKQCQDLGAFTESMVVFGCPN

CFI secreted by HEK293 cells transduced with AAV2 bicistronic vector RC289 (coAflibercept-F2A-coCFI)
C3b cleavage assay, iC3b ELISA [1]: CFI and FHL1 expressed from all bicistronic vectors is functional and can facilitate breakdown of C3b to iC3b

CFI secreted by HEK293 cells transduced with AAV2 bicistronic vector RC313 (coCFI-F2A-coAflibercept)
C3b cleavage assay, iC3b ELISA [1]: CFI and FHL1 expressed from all bicistronic vectors is functional and can facilitate breakdown of C3b to iC3b

B1: recombinant CFI (Complement Technology, Inc, A138) (protein)
chain: KVTYTSQEDLVEKKCLAKKYTHLSCDKVFCQPWQRCIEGTCVCKLPYQCPKNGTAVCATNRRSFPTYCQQKSLECLHPGTKFLNNGTCTAEGKFSVSLKHGNTDSEGIVEVKLVDQDKTMFICKSSWSMREANVACLDLGFQQGADTQRRFKLSDLSINSTECLHVHCRGLETSLAECTFTKRRTMGYQDFADVVCYTQKADSPMDDFFQCVNGKYISQMKACDGINDCGDQSDELCCKACQGKGFHCKSGVCIPSQYQCNGEVDCITGEDEVGCAGFASVTQEETEILTADMDAERRRIKSLLPKLSCGVKNRMHIRRKRIVGGKRAQLGDLPWQVAIKDASGITCGGIYIGGCWILTAAHCLRASKTHRYQIWTTVVDWIHPDLKRIVIEYVDRIIFHENYNAGTYQNDIALIEMKKDGNKKDCELPRSIPACVPWSPYLFQPNDTCIVSGWGREKDNERVFSLQWGEVKLISNCSKFYGNRFYEKEMECAGTYDGSIDACKGDSGGPLVCMDANNVTYVWGVVSWGENCGKPEFPGVYTKVANYFDWISYHVGRPFISQYNV
C3b cleavage assay, iC3b ELISA [2]: C3b incubated with recombinant CFI and FHL1 served as a positive control; C3b breakdown requires the presence of CFI and FHL1
